Measurements reported in the domain aggregation screens of Martell et al. (2025).

Experiment: soluble fraction after stress (log2 fold change); higher = more stays soluble; pooled small domains, quantitative proteomics
Details: stress: pH 4
Summary of the method: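 Aggregation propensity here comes from the fold change in the soluble amount of each small protein domain after acid stress, measured in pooled custom libraries by high-throughput quantitative proteomics. The acid stress was pH 4. On the log2 scale, higher values mean more of the domain stayed soluble.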

In order of rising “soluble fraction (log2)” value:
1. HMNFSKEYILVHSYKEIDILDALIVKYEATLVNREFDLFINSYIKINEDYAKLFRDEIISKTSGSMSIKEL  -2.12
2. HMEIHIGSLIKEKMEERGLSVSDFAHALHYERTNIYKIFKRSSIDVDLLLRISEVLAYDFLREVYL  -1.9
3. HMLVGKSVIMKTNESSSGMIAGKVNYWENIDGKIYLGINGKLYDIADVDTVLDNDYYDKLVN  -1.14
4. HMVSNRMVYSDFQQKWINNQVESINVNADKMTIEVTTQDEKKYTVYAPSSMIEFLNEQYPKDDIKIEYVAP  -0.94
5. HMRGESFSTLVSILQEMSARKAAQVLNGLSEGLAVEVLRALPSDVAGDILGRMDAAKAAALMEQLST  -0.9
6. HMTLYQIGDKVVHPMHGAGVIDSVVQRKVSGQVQEFYLLKLSVGNMVVMVPTDNTGEIGMRP  -0.777
7. HMSRMGDSIKSLRSRNNMSQDALAEKLNVTRQAISNWENSKTQPDADTLKNLGIIFNVTVDEIINNDF  -0.587
8. HMVEEVDYGTFMRMIEEKNIGKVEVRAGEIVFTDKDEKQIYKTGAMEDATLTQRLYESGAEFSKDV  -0.507
9. HMKRDEYIAQLKKYLKRLPKKEYDSAIEYFTEYFDEAGPERELEVIQELGQPKEAAKEMLLQLLNE  -0.506
10. HMDPLGGFTKGDVDMDGRVAVNDAVMVLKNAIKLMELDTQQLMLADADNDGKITVNDAVMILKKAIKLID  -0.478
11. HMNSVTLEHIVYDFRVFNMLKGSGINDIDELIKAAEDGRLFKIIGSNLTYKRIKKSAAEFGVILPDKPG  -0.45
12. HMTAEVIYVDVGGEVNQPSVVELTDGSRVTDAIAAAGGLTEKADLTDINRAAFVSDGEKIFIPSQEE  -0.385
13. HMVLRPDDVEDSLWREWVSHRKAKRAAVTEGVLKTFRQEATKASFTLADAMRKSIDRGWTGFEAEWVARET  -0.325
14. HMNITFAENIKQFRKAKSMSMEELGKRLGKAKSSISAWENGKRTPKINELKSISEALGVTISQLLGF  -0.293
15. HMKAQVKSVLDDIPGIGQTRRKALMRYFKSLEKIREASVEELKEADAMNERAAQSVYAFFHK  -0.222
16. HMLKHNLLSELSRIEGVGAVKRKALMDKFGTVENIKRASEEELSEVAGIGPTLARTIKEQMNKDE  -0.2
17. HMSGTGSYVALLRDPQGNVGKVVVKGSKGEQVLSQPQQAARLDGATPSYEVTGRQIAEDFGRALAV  -0.198
18. HMAVPMTPGELVGSRVRVLWWKDGRGEVVALARGHQATLPARSEEPLRTGADAVVLEADEGTLVVTS  -0.192
19. HMRGGLATLTPRERQVLALMAEGRSNAGIAAELVVSGGAVEKHVASIFTKLGLPPDESDNRRVLAVLRHLG  -0.186
20. HMTMTKELGQRIRAERTARKMTQEELAERADLHPTYIGQVERGEKSLTIASLEKIVEGLGISFSDLFEN  -0.0395
21. HMAVEQLKSQIGGFLKANREQSFSAQNMADGLRMNSAAGYQDVVNAMNALVRDGEAVEKDGQFSYNVN  -0.0292
22. HMNNVRIEHIDTIGTVRLHKKRGVKRVSLRIHQSGEIRVTQPLYLPFSAGVLFAKSHTEWIMKQKQK  0.0224
23. HMNELGSLIKRKREELGLSQEELARILGYKHKSSINKIELGLADVPRTKVPAFAKALGMTPVEFS  0.063
24. HMPEKKKYGDFVSMTEEEYGKLVSEYGQEAAKRMVEILNNYKGATGKPYKSDYLAILNWVVKRIKEE  0.077
25. HMAEKGIGRVNADWLNMRTSPGGEVLTVLKQGTELQVIGRSGSWLEVQHGNEQGYVSSRYITIQP  0.132
26. HMNEVIIKNWSNAVGRNIKIKTKRGRPIFGRLLAINDQQLTIASKYMRGNATITVAREDVVSMSVS  0.22
27. HMHAPKIIVLTINPDKIRDVIGPGGKMIKSIVAATGVKMDVEDDGKIHISSSDQKAADEAIRMINEITAEA  0.223
28. HMRVESVGDRIRRLRKSLGLTQVKLAQMLGIKAPSVVQWESDKTNLSGENLLNAAKLFGVTPDYILYGG  0.233
29. HMKMAKTIKEIAEEIGVSKQAVFKKIKQVPLSTEIEKFISTVDGKKLVSVDGENLIKQAFQR  0.255
30. HMNNTVLSSVKSINMFLDANGGDAGQAFRIYNNTNPDSNPTESTYIFKVAEDGNTFVKGYLNLNGTTL  0.378
